US20190367957A1
Read-outs that look alike come from different tables or passages of the source.

Assays:
[1] = target: T1, cytochrome P-450aluC09 (P450 AluC09) from Amycolatopsis lurida NRRL 2430 (Amycolatopsis lurida NRRL 2430); assay: cell-based or functional assay
T1 sequence: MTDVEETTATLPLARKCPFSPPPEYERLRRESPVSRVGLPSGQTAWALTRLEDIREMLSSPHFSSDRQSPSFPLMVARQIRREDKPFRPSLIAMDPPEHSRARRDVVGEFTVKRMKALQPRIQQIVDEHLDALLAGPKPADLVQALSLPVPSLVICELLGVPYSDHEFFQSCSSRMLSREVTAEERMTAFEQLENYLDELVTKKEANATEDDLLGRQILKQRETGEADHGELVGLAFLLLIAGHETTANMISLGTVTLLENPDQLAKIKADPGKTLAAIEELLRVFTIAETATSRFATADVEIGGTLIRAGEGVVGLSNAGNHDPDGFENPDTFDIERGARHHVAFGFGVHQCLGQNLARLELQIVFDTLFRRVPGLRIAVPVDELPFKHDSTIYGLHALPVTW

[2] = target: T1, cytochrome P-450aluC09 (P450 AluC09) from Amycolatopsis lurida NRRL 2430 (Amycolatopsis lurida NRRL 2430); assay: cell-based or functional assay; remark: listed apart in the source

B1: ferredoxin AluF03 from Amycolatopsis lurida NRRL 2430 (protein)
chain: MKIIADTGKCVGAGQCVLTDPDLFDQSEDDGTVLVLNAEPEGEEAEENARTAVHICPGQALSLA
% yield of parent-derived products, 4'-HO-diclofenac 310 m/z (whole cell biocatalysis) [1]: 60.3% | % yield of parent-derived products, 5-HO-diclofenac 310 m/z (whole cell biocatalysis) [1]: 23.8% | % yield of parent-derived products, HO-bosentan 568 m/z (whole cell biocatalysis) [1]: 52.6% | % yield of parent-derived products, HO-bosentan 568 m/z (whole cell biocatalysis) [2]: 27.4%

B2: ferredoxin Fd1 from Streptomyces griseus 11796 (protein)
chain: TMRVSADRTVCVGAGLCALTAPGVFDQDDDGIVTVLTAEPAADDDRRTAREAGHLCPSGAVRVVEDTE
% yield of parent-derived products, 4'-HO-diclofenac 310 m/z (whole cell biocatalysis) [1]: 11.5% | % yield of parent-derived products, 5-HO-diclofenac 310 m/z (whole cell biocatalysis) [1]: 4.2% | % yield of parent-derived products, HO-bosentan 568 m/z (whole cell biocatalysis) [1]: 6.3%

B3: ferredoxin CamB from Pseudomonas putida ATCC 17453 (protein)
chain: SKVVYVSHDGTRRELDVADGVSLMQAAVSNGIYDIVGDCGGSASCATCHVYVNEAFTDKVPAANEREIGMLECVTAELKPNSRLCCQIIMTPELDGIVVDVPDRQW
% yield of parent-derived products, HO-bosentan 568 m/z (whole cell biocatalysis) [2]: 21.2%
